Results published in the nanobody polyreactivity screen of Harvey et al. (2022).

Test: yeast display, Sf9 membrane polyspecificity reagent, FACS + sequencing; frameworks hold sequencing errors
Method in brief: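 Polyreactivity labels are assigned by the sorting gate from which each nanobody was recovered. The gates were low and high (top ~1%), set on anti-HA fluorescence for expression and streptavidin fluorescence for reagent binding. Before sorting, galactose-induced (36–48 hours) yeast display cells were stained for 1 hour at 4 °C with 10% biotinylated, detergent-solubilized Sf9 membrane reagent.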
In the case of “QVQLVESGGGLVQAGGSLRLSCAASGIIFRYYAMGWYRQAPGKERELVAAISGRGGSTYYADSVKGRFTISRDNAKNTVYLQMNSLKPEDTAVYYCAIYVSWPLYYYWGQGTQVTVSS”, the “polyreactivity (PSR sort gate)” value is reported as “low polyreactivity”.
With “QVQLVESGGGLVQAGGSLRLSCAASGIIFRYYAMGWYRQAPGKERELVAAITVNGGRTYYADSVKGRFTISRDNAKNNVYLQMNSLKPEVTAVYYCAAYPHRYRVTPYPSVVSLDNYWGQGTQVTVSS” the “polyreactivity (PSR sort gate)” value was “low polyreactivity”.
For “QVQLVESGGGLVQAGGSLRLSCAASGIIFRYYAMGWYRQAPGKERELVATISWRGGSTYYADSVKGRFTISRDNAKNTVYLQMNSLKPEDTAVYYCAAAISYSARGGKGLGGYWGQGTQVTVSS”, the “polyreactivity (PSR sort gate)” value was “high polyreactivity”.
With “QVQLVESGGGLVQAGGSLRLSCAASGIIFSANAMGWYRQAPGKERELVAAISRDGSTYYADSVKGRFTISRDNAKNTVYLQMNSLKPEDTAVYYCAVDPIYYWRPGYDYWGQGTQVTVSS” the “polyreactivity (PSR sort gate)” value was “low polyreactivity”.
For “QVQLVESGGGLVQAGGSLRLSCAASGIIFSAYAMGWYRQPPGKERELVAVIDSDGDGTYYADSVKGRFTISRDNAKNTVYLQMNSLKPEDTAVYYCAADYEYTRVEGWFIGFDEYGYWGQGTQVTVSS”, the “polyreactivity (PSR sort gate)” value was “low polyreactivity”.
With “QVQLVESGGGLVQAGGSLRLSCAASGIIFSDNAMGWYRQAPGKERELVAAIDWSGGSTYYADSVKGRFTISRDNAKNTVYLQMNSLKPEDTAVYYSAAEYRDYVPVNDTGDYWGQGTQVTVSS” the “polyreactivity (PSR sort gate)” value was “low polyreactivity”.
With “QVQLVESGGGLVQAGGSLRLSCAASGIIFSDNAMGWYRQAPGKERELVAAIDWSGGSTYYADSVKGRFTISRDNAKNTVYLQMNSMKPEDSAVYDCAAEYRDYVPVNDTGDYWGQGTQVTVSS” the “polyreactivity (PSR sort gate)” value was “low polyreactivity”.
In the case of “QVQLVESGGGLVQAGGSLRLSCAASGIIFSDYTMGWYRQAPGKERELVAAITWSGASTYYADSVKGRFTISRDNAKNTVYLQMNSLKPEDTAVYYCAAREYWYPGYVSWFDYWGQGTQVTVSS”, the “polyreactivity (PSR sort gate)” value is reported as “high polyreactivity”.
With “QVQLVESGGGLVQAGGSLRLSCAASGIIFSGYAKGWSRQAPGKERELVAAISYSGASTYYADSVKGRFTISRDNAKNSVYLLMNSLKPEDTAVYFCAADRRYGRYWNGWSYYYWGQGTQVTVSS” the “polyreactivity (PSR sort gate)” value was “high polyreactivity”.
In the case of “QVQLVESGGGLVQAGGSLRLSCAASGIIFSIYAMGWYRQAPGKERELVAAISGRGGRTYYADSVKGRFTISRDNAKNTVYLQMNSLKPVDTAVYYCNAEYHDLYDYWGQGTQVTVSS”, the “polyreactivity (PSR sort gate)” value is reported as “low polyreactivity”.
With “QVQLVESGGGLVQAGGSLRLSCAASGIIFSKNTMGWYRQAPGKERELVAAISRSGGTSTYYADSVKGRFTISRDNAKNTVYLQMNSLKPEDTAVYYCAAGVPRIGGYYYWGQGTQVTVSS” the “polyreactivity (PSR sort gate)” value was “low polyreactivity”.
For “QVQLVESGGGLVQAGGSLRLSCAASGIIFSQYAMGWYRQAPGKERELVAGITRSGGSTYYADSVKGRFTISRDNAKNTVYLQMNSLKPEDTAVYYCAAVQRYEYGYWGQGTQVTVSS”, the “polyreactivity (PSR sort gate)” value was “high polyreactivity”.
For “QVQLVESGGGLVQAGGSLRLSCAASGIIFSRNVMGWYRPAPGKERELVAVISGSGGSTYYADSVKGRFTISRDNAKNTVYLQMNSLKPEDSAVYYCAASYEYLWGYDYEYWGQGTQVTVSS”, the “polyreactivity (PSR sort gate)” value was “high polyreactivity”.
With “QVQLVESGGGLVQAGGSLRLSCAASGIIFSSNAMGWYRPAPGKERELVAAISNTGRTNYADSVKGRFTISRDNEKNTVYLQMNSLKPEDTAVYYCDARLSRRYYSYYYWGQGTQVTVSS” the “polyreactivity (PSR sort gate)” value was “high polyreactivity”.
With “QVQLVESGGGLVQAGGSLRLSCAASGIIFSSYAMGWYRQAPGKERELVAAISWSGGSTYYADSVKGRFTISRDNAKNTVYLQMNSLKPEDTAVYYCAAYPVWYYEYDYWGQGTQVTVSS” the “polyreactivity (PSR sort gate)” value was “low polyreactivity”.
With “QVQLVESGGGLVQAGGSLRLSCAASGIIFSTYAMGWYRQAPGKERELVAAISSGGRTYYADSVKGRFTISRDNAKNTVYLQMNSLKPEDTAVYYCAASYYRYYSGWTPYYYWGQGTQVTVSS” the “polyreactivity (PSR sort gate)” value was “high polyreactivity”.
With “QVQLVESGGGLVQAGGSLRLSCAASGIIFSTYAMGWYRQAPGKERELVAAITSTGSTNYADSVKGRFTISRDNAKNTVYLQMNSLKPEDTAVYYCAARYAGPSPTDTGHDYWGQGTQVTVSS” the “polyreactivity (PSR sort gate)” value was “low polyreactivity”.
With “QVQLVESGGGLVQAGGSLRLSCAASGIIFSWYAMGWYRQAPGKERELVASITIGGNTNYADSVKGRFTISRDNAKNTVYLQMNSLKPEDTAVYYCAAQTFWYGYGGGDYWGEGTQVTVSS” the “polyreactivity (PSR sort gate)” value was “low polyreactivity”.
With “QVQLVESGGGLVQAGGSLRLSCAASGIIFSWYAMGWYRQAPGKERELVATISGGGGSTYYADSVKGRFTISRDNAKNTVYLQMNSLKPEDTAVYYCAADYWNFNWRYKLYRPYDYWGQGTQVTVSS” the “polyreactivity (PSR sort gate)” value was “high polyreactivity”.
With “QVQLVESGGGLVQAGGSLRLSCAASGIIFSYNAMGWYRQAPGKERELVAAINSSGGSTNYADSVKGRFTISRDNAKNTVYLQMNSLKPEDTAVYYCAARDATYYGVWRYYGIDDYWGQGTQVTVSS” the “polyreactivity (PSR sort gate)” value was “low polyreactivity”.
For “QVQLVESGGGLVQAGGSLRLSCAASGIIFSYNAMGWYRQAPGKERELVAAITSIGGRTYYADSVKGRFTISRDNAKNTVYLKMNSLKPEDCAVYYCAVVAAFYNSPEGDYWGQGTQVTVSS”, the “polyreactivity (PSR sort gate)” value was “low polyreactivity”.
With “QVQLVESGGGLVQAGGSLRLSCAASGIIFSYYAMGWYIQAPGKERELVAVINSGGSTYYADSVKGRFTISRDNAKNTVYLQMNSLKPEDTAVYYCAATIFVKFYYWGQGTQVTVSS” the “polyreactivity (PSR sort gate)” value was “low polyreactivity”.
With “QVQLVESGGGLVQAGGSLRLSCAASGIIFSYYAMGWYRQAPGKERELVAAISSSGVSTNYADSVKGRFTISRDNAKNTVYLQMNSLKPEDTAVYYCNGRGYYWYRPYVNSNGGYWGQGTQVTVSS” the “polyreactivity (PSR sort gate)” value was “high polyreactivity”.
With “QVQLVESGGGLVQAGGSLRLSCAASGIIFSYYAMGWYRQAPGKERELVAAITWSVGSTDYADSVKGRFTISRDNAKNTVYLQMNSLKPEDTAVYYCAATITTLDWDDRYDYWGQGTQETVSS” the “polyreactivity (PSR sort gate)” value was “low polyreactivity”.
With “QVQLVESGGGLVQAGGSLRLSCAASGIIFSYYTMGWYRPAPGKERELVAAISARGGRTYYADSVKGRFTISRDNAKNTVYLQMNSLKPEDTAVYYCAASWSTEYYWGQGTQVTVSS” the “polyreactivity (PSR sort gate)” value was “high polyreactivity”.
In the case of “QVQLVESGGGLVQAGGSLRLSCAASGIIFTDNAMGWYRQAPGKARELVATISWSTDNTYYADSVKGRFTISRDNAKNTVYLQMNSLKPEDTAVYYCAAGWQIIQGSQYDYWGQGTQVTVSS”, the “polyreactivity (PSR sort gate)” value is reported as “low polyreactivity”.
For “QVQLVESGGGLVQAGGSLRLSCAASGIIFTDYAMGWYRQAPGTERELVAAISSGGGSTYYADSVKGRFTISRDNAKYSVYLQMNSLKPDDTAVYYGAAQSSGSYGFDHWGQGTQVTVSS”, the “polyreactivity (PSR sort gate)” value was “high polyreactivity”.
For “QVQLVESGGGLVQAGGSLRLSCAASGIIFTFNARGWDRQAPGKERELVASISITGDTYYADSVKGRFTISRDNAKNTVYLQMNSLKPEDTAVYYCAAEYYFYSRHWYISYDYWGQGTQVTVSS”, the “polyreactivity (PSR sort gate)” value was “low polyreactivity”.
For “QVQLVESGGGLVQAGGSLRLSCAASGIIFTFYGMGWYRQAPGKERELVAAIRTGGSTTYADSVKGRFTISRDNAKNTVYLQMNSLKPEDTAVYYCAAERYWVFHGTISYNYDYWGQGTQVTVSS”, the “polyreactivity (PSR sort gate)” value was “low polyreactivity”.
For “QVQLVESGGGLVQAGGSLRLSCAASGIIFTKYVMGWYRQAPGKERELVAAINTDGGSTRYADSVKGRFTISRDNAKNTVYLQMNSLIPEDTAVYYCNTVWFYGAKYDYWGQGTQVTVSS”, the “polyreactivity (PSR sort gate)” value was “high polyreactivity”.
With “QVQLVESGGGLVQAGGSLRLSCAASGIIFTPYNMGWYRQAPGKERELVAASTGSGGSTYYADSVKGRFTISRDNAKNTVDLQMNSLKPEDTAVYYCAAYKQYRFYRYDYWGQGTQVTVSS” the “polyreactivity (PSR sort gate)” value was “high polyreactivity”.
In the case of “QVQLVESGGGLVQAGGSLRLSCAASGIIFTVYAMGWYRQAPGKERELVAAITSSGGRTYYADSVKGRFTISRDNAKNTVYLQMNSLKPEDTAVYYCAASIWLYRYYYWGQGTQVTVSS”, the “polyreactivity (PSR sort gate)” value is reported as “high polyreactivity”.
For “QVQLVESGGGLVQAGGSLRLSCAASGIIFTVYVMGWYRQAPGKERELVAGITFSTSSTYYADSVKGRFTISRDNAKNTVYLQMNSLKPEDTAVYYCNKDALQTAFDYWGQGTQVTVSS”, the “polyreactivity (PSR sort gate)” value was “low polyreactivity”.
In the case of “QVQLVESGGGLVQAGGSLRLSCAASGIIFTWYAMGWYRQAPGKERELVAAISGSGDITYYADSVKGRFTSSRDNAKNTVYLQMNSLKPEDTAVYYCAADPWTYWEDYDYWGQGTQVTVSS”, the “polyreactivity (PSR sort gate)” value is reported as “low polyreactivity”.
For “QVQLVESGGGLVQAGGSLRLSCAASGIIFTYYAMGWYRQAPGKERELVAAISYRGGSTYADSVKGRFTISRDNAKNTVSLQMNSLKPEDTAVYYCAAQRWYVYGQKYHYGYWGQGTQVTVSS”, the “polyreactivity (PSR sort gate)” value was “high polyreactivity”.
For “QVQLVESGGGLVQAGGSLRLSCAASGIIFVKNAMGWYRPAPGKERELVAAISDNADSTYYADSVKGRFTISRDNAKNTVYLQMNSLKPEDTAVYYCAADWVHRTWLFWYTKYDYWGQGTQVTVSS”, the “polyreactivity (PSR sort gate)” value was “low polyreactivity”.
In the case of “QVQLVESGGGLVQAGGSLRLSCAASGIIFVKNAMGWYRQAPGKERELVAAISRSGARTYYADSVKGRFTISRDNEKNTVYLQMNSLKPEDTAVYYCNVYTRDRGYDYWGHGTQVTVSS”, the “polyreactivity (PSR sort gate)” value is reported as “high polyreactivity”.
In the case of “QVQLVESGGGLVQAGGSLRLSCAASGIIFVKNAMGWYRQAPGKERELVASISGSGGRTYYADSEKGRFTISRDNAKNTVYLQMNILKPEDTAVYYCNTLLAPHARKARRHDYWGQGTQVTVSS”, the “polyreactivity (PSR sort gate)” value is reported as “low polyreactivity”.
For “QVQLVESGGGLVQAGGSLRLSCAASGIIFVKYAMGWYRQAPGKERQLVAAITSGGSTYYADSVKGRFTISRDNAMYTVYLQMNSLKPEDTAVYYCNADSWFLYFFTINGYWGQGTQVTVSS”, the “polyreactivity (PSR sort gate)” value was “high polyreactivity”.
In the case of “QVQLVESGGGLVQAGGSLRLSCAASGIIFVSYAMGWYRQAPGKERELVADITSGGRTYYADSVKGRFTISRDNAKNTVYLQMNSLKPEDTAVYYCAATYSYKGRWVWVYYWGQGTQVTVSS”, the “polyreactivity (PSR sort gate)” value is reported as “high polyreactivity”.
In the case of “QVQLVESGGGLVQAGGSLRLSCAASGIIFVSYDMGWYRQAPGKERELVAAINRGGRTYYADSVKGRFTISRDNAKNTDYLQMNSLKPEDTAVYYCAAQFHFRPFSWTYDYWGQGTQVTVSS”, the “polyreactivity (PSR sort gate)” value is reported as “high polyreactivity”.
For “QVQLVESGGGLVQAGGSLRLSCAASGIIFVTNDMGWYRQAPGKERELVATITWSGGSTYYADSVKGRFTISRDTAKNTVYLQMNSLKPEDTAVYYCAAEKDAHKEDYWGQGSQVTVSS”, the “polyreactivity (PSR sort gate)” value was “low polyreactivity”.
For “QVQLVESGGGLVQAGGSLRLSCAASGIIFVVYAMGWYRQAPGKERELVAAISFRGGSTYYADSVKGRFTISRDNAKNTVYLQMNSLKPEDTAVYYCAARAFRHDGYDYWGQGTQVTVSS”, the “polyreactivity (PSR sort gate)” value was “low polyreactivity”.
